Experimental data: the supplement of paper PMC11246515
± gives the standard deviation of the averaged measurements.

Experiment: total protein half-life in vivo (active degradation + dilution); higher = more stable protein
[1] = E. coli NCM3722 delta-clpP delta-lon delta-hslV, growth: N-lim chemostat, doubling time 6 h
[2] = E. coli NCM3722 delta-clpP, growth: N-lim chemostat, doubling time 6 h
[3] = E. coli NCM3722 delta-hslV, growth: N-lim chemostat, doubling time 6 h
[4] = E. coli NCM3722 delta-lon, growth: N-lim chemostat, doubling time 6 h
[5] = E. coli NCM3722 delta-smpB, growth: N-lim chemostat, doubling time 6 h
[6] = wild type E. coli NCM3722, growth: C-lim chemostat, doubling time 3 h
[7] = wild type E. coli NCM3722, growth: C-lim chemostat, doubling time 6 h
[8] = wild type E. coli NCM3722, growth: C-lim chemostat, doubling time 12 h
[9] = wild type E. coli NCM3722, growth: N-lim chemostat, doubling time 6 h
[10] = wild type E. coli NCM3722, growth: P-lim chemostat, doubling time 6 h
[11] = wild type E. coli NCM3722, growth: P-lim chemostat, doubling time 12 h
[12] = wild type E. coli NCM3722, growth: N-lim chemostat, doubling time 12 h

Sequence	total protein half-life in vivo [1]	total protein half-life in vivo [2]	total protein half-life in vivo [3]	total protein half-life in vivo [4]	total protein half-life in vivo [5]	total protein half-life in vivo [6]	total protein half-life in vivo [7]	total protein half-life in vivo [8]	total protein half-life in vivo [9]	total protein half-life in vivo [10]	total protein half-life in vivo [11]	total protein half-life in vivo [12]
MFQLSVQDIHPGEKAGDKEEAIRQVAAALVQAGNVAEGYVNGMLAREQQTSTFLGNGIAIPHGTTDTRDQVLKTGVQVFQFPEGVTWGDGQVAYVAIGIAASSDEHLGLLRQLTHVLSDDSVAEQLKSATTAEELRALLMGEKQSEQLKLDNEMLTLDIVASDLLTLQALNAARLKEAGAVDATFVTKAINEQPLNLGQGIWLSDSAEGNLRSAIAVSRAANAFDVDGETAAMLVSVAMNDDQPIAVLKRLADLLLDNKADRLLKADAATLLALLTSDDAPTDDVLSAEFVVRNEHGLHARPGTMLVNTIKQFNSDITVTNLDGTGKPANGRSLMKVVALGVKKGHRLRFTAQGADAEQALKAIGDAIAAGLGEGA	6.229 ± 0.029 h	5.64 ± 0.69 h	5.85 ± 0.086 h	6.16 ± 0.26 h	5.94 ± 0.085 h	2.96 ± 0.13 h	5.74 ± 0.56 h	12.3 ± 1.2 h	5.99 ± 0.57 h	5.71 ± 0.078 h	11.97 ± 0.033 h	
MFQQQKDWETRENAFAAFTMGPLTDFWRQRDEAEFTGVDDIPVRFVRFRAQHHDRVVVICPGRIESYVKYAELAYDLFHLGFDVLIIDHRGQGRSGRLLADPHLGHVNRFNDYVDDLAAFWQQEVQPGPWRKRYILAHSMGGAISTLFLQRHPGVCDAIALTAPMFGIVIRMPSFMARQILNWAEAHPRFRDGYAIGTGRWRALPFAINVLTHSRQRYRRNLRFYADDPTIRVGGPTYHWVRESILAGEQVLAGAGDDATPTLLLQAEEERVVDNRMHDRFCELRTAAGHPVEGGRPLVIKGAYHEILFEKDAMRSVALHAIVDFFNRHNSPSGNRSTEV	5.43 ± 1.2 h	> 8 h	4.87 ± 0.73 h	4.93 ± 0.22 h	4.57 ± 0.31 h	3.13 ± 0.43 h	6.52 ± 0.38 h	11.3 ± 1.8 h	4.42 ± 0.28 h	6.17 ± 0.69 h	10.8 ± 0.91 h	8.56 ± 0.72 h
MFRPFLNSLMLGSLFFPFIAIAGSTVQGGVIHFYGQIVEPACDVSTQSSPVEMNCPQNGSIPGKTYSSKALMSGNVKNAQIASVKVQYLDKQKKLAVMNIEYN						0.288 h	0.225 h					
MFSALRHRTAALALGVCFILPVHASSPKPGDFANTQARHIATFFPGRMTGTPAEMLSADYIRQQFQQMGYRSDIRTFNSRYIYTARDNRKSWHNVTGSTVIAAHEGKAPQQIIIMAHLDTYAPLSDADADANLGGLTLQGMDDNAAGLGVMLELAERLKNTPTEYGIRFVATSGEEEGKLGAENLLKRMSDTEKKNTLLVINLDNLIVGDKLYFNSGVKTPEAVRKLTRDRALAIARSHGIAATTNPGLNKNYPKGTGCCNDAEIFDKAGIAVLSVEATNWNLGNKDGYQQRAKTPAFPAGNSWHDVRLDNHQHIDKALPGRIERRCRDVMRIMLPLVKELAKAS		5.3 ± 0.29 h	5.24 ± 0.83 h	5.44 ± 0.031 h	4.38 ± 0.053 h	2.58 ± 0.67 h	2.46 h		5.37 ± 1 h	4 ± 0.27 h	7.1 ± 0.99 h	9.09 ± 1.6 h
MFTGSIVAIVTPMDEKGNVCRASLKKLIDYHVASGTSAIVSVGTTGESATLNHDEHADVVMMTLDLADGRIPVIAGTGANATAEAISLTQRFNDSGIVGCLTVTPYYNRPSQEGLYQHFKAIAEHTDLPQILYNVPSRTGCDLLPETVGRLAKVKNIIGIKEATGNLTRVNQIKELVSDDFVLLSGDDASALDFMQLGGHGVISVTANVAARDMAQMCKLAAEGHFAEARVINQRLMPLHNKLFVEPNPIPVKWACKELGLVATDTLRLPMTPITDSGRETVRAALKHAGLL [P0A6L2]	4.22 ± 0.18 h	3.67 ± 0.84 h	3.03 ± 0.44 h	4.05 ± 0.09 h	3.42 ± 0.18 h	3.09 ± 0.099 h	5.47 ± 0.57 h	11.4 ± 0.21 h	3.43 ± 0.14 h	5.72 ± 0.24 h	11.1 ± 0.94 h	5.28 ± 0.1 h
MFVEHNLIKNIKIFTLAFTLTVVLIQLSRFISPLAIIHSSYIFLAWMPLCVMLSILFIFGWRGVVPVLCGMFCTNLWNFHLSFLQTAVMLGSQTFVVLCACAILRWQLGTRWRYGLTSRYVWQRLFWLGLVTPIGIKCSMYLVGSFFDFPLKISTFFGDADAIFTVVDLLSLFTAVLIYNMLFYYLTRMIVSPHFAQILWRRDIAPSLGKEKRAFTLSWLAALSVLLLLLCTPYENDFIAGYLVPVFFIIFTLGVGKLRYPFLNLTWAVSTLCLLNYNQNFLQGVETEYSLAFILAVLISFSVCLLYMVRIYHRSEWLNRRWHLQALTDPLTLLPNFRALEQAPEQEAGKSFCCLRIDNLEFMSRHYGLMMRVHCIRSICRTLLPLMQENEKLYQLPGSELLLVLSGPETEGRLQHMVNILNSRQIHWNNTGLDMGYGAAWGRFDGNQETLQPLLGQLSWLAEQSCAHHHVLALDSREEMVSGQTTKQVLLLNTIRTALDQGDLLLYAQPIRNKEGEGYDEILARLKYDGGIMTPDKFLPLIAQFNLSARFDLQVLESLLKWLATHPCDKKGPRFSVNLMPLTLLQKNIAGRIIRLFKRYHISPQAVILEITEEQAFSNAESSMYNIEQLHKFGFRIAIDDFGTGYANYERLKRLQADIIKIDGVFVKDIVTNTLDAMIVRSITDLAKAKSLSVVAEFVETQQQQALLHKLGVQYLQGYLIGRPQPLAD		6.53 ± 0.1 h	5.86 ± 0.58 h	6.27 ± 0.65 h	5.72 ± 0.47 h		5.29 ± 1.1 h	13.6 ± 0.27 h	6.08 ± 0.22 h	6.1 ± 0.44 h	13.8 ± 0.87 h	12.2 ± 1.5 h
